Patent publication US6110457

Target: T1, bovine fetuin (type IV; Sigma Chemical Company) (bovine) (UniProt P12763)
T1 sequence: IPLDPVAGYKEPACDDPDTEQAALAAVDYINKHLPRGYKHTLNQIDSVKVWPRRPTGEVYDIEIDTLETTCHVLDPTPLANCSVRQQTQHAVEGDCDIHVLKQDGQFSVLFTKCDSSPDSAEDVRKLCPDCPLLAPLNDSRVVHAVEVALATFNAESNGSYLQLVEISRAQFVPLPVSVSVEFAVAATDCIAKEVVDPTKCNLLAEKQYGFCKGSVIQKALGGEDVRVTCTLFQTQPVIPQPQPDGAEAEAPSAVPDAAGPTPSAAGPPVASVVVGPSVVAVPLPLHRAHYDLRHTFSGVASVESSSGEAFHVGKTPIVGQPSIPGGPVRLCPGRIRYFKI

B1: hemagglutinin-neuraminidase protein, HN, of wild-type HPIV-3 (JS) (enzyme)
chain: MEYWKHTNHGKDAGNELETSMATHGNKLTNKIIYILWTIILVLLSIVFIIVLINSIKSEKAHESLLQDINNEFMEITEKIQMASDNTNDLIQSGVNTRLLTIQSHVQNYIPISLTQQMSDLRKFISEITIRNDNQEVLPQRITHDVGIKPLNPDDFWRCTSGLPSLMKTPKIRLMPGPGLLAMPTTVDGCVRTPSLVINDLIYAYTSNLITRGCQDIGKSYQVLQIGIITVNSDLVPDLNPRISHTFNINDNRKSCSLALLNTDVYQLCSTPKVDERSDYASSGIEDIVLDIVNYDGSISTTRFKNNNISFDQPYAALYPSVGPGIYYKGKIIFLGYGGLEHPINENVICNTTGCPGKTQRDCNQASHSPWFSDRRMVNSIIVVDKGLNSIPKLKVWTISMRQNYWGSEGRLLLLGNKIYIYTRSTSWHSKLQLGIIDITDYSDIRIKWTWHNVLSRPGNNECPWGHSCPDGCITGVYTDAYPLNPTGSIVSSVILDSQKSRVNPVITYSTATERVNELAILNRTLSAGYTTTSCITHYNKGYCFHIVEINHKSLNTFQPMLFKTEIPKSCS
Q: B1 was tested. Which Neuraminidase activity with Fetuin (optical density values at 549nm) (optical density at 549nm) did it give?
A: 1.11
